From US20210087239A1 (ACADEMIA SINICA, published 2021) come the findings set out here.

B3: Paraspeckle component 1 (PSPC1), human (other)
chain: MMLRGNLKQVRIEKNPARLRALESAVGESEPAAAAAMALALAGEPAPPAPAPPEDHPDEEMGFTIDIKSFLKPGEKTYTQRCRLFVGNLPTDITEEDFKRLFERYGEPSEVFINRDRGFGFIRLESRTLAEIAKAELDGTILKSRPLRIRFATHGAALTVKNLSPVVSNELLEQAFSQFGPVEKAVVVVDDRGRATGKGFVEFAAKPPARKALERCGDGAFLLTTTPRPVIVEPMEQFDDEDGLPEKLMQKTQQYHKEREQPPRFAQPGTFEFEYASRWKALDEMEKQQREQVDRNIREAKEKLEAEMEAARHEHQLMLMRQDLMRRQEELRRLEELRNQELQKRKQIQLRHEEEHRRREEEMIRHREQEELRRQQEGFKPNYMENREQEMRMGDMGPRGAINMGDAFSPAPAGNQGPPPMMGMNMNNRATIPGPPMGPGPAMGPEGAANMGTPMMPDNGAVHNDRFPQGPPSQMGSPMGSRTGSETPQAPMSGVGPVSGGPGGFGRGSQGGNFEGPNKRRRY
notes: Endogenous PSPC1 of human HCC cell lines (Huh-7, Mahlavu); also called endogenous PSPC1; nuclear PSPC1

Experiment [1] deals with B3. Description: conclusion drawn from expression and fractionation experiments in Mahlavu cells; no direct binding assay described.
Experiment [2] has as its target T1, HA-tagged PSPC1 (wild type) (human, UniProt Q8WXF1 1-523).
T1 construct: Full-length PSPC1 cDNA cloned into pcDNA3.0-HA and expressed in 293T or SK-hep1 cells; also called HA-PSPC1; wild-type PSPC1; not shown: HA tag from the pcDNA3.0-HA plasmid
T1 sequence: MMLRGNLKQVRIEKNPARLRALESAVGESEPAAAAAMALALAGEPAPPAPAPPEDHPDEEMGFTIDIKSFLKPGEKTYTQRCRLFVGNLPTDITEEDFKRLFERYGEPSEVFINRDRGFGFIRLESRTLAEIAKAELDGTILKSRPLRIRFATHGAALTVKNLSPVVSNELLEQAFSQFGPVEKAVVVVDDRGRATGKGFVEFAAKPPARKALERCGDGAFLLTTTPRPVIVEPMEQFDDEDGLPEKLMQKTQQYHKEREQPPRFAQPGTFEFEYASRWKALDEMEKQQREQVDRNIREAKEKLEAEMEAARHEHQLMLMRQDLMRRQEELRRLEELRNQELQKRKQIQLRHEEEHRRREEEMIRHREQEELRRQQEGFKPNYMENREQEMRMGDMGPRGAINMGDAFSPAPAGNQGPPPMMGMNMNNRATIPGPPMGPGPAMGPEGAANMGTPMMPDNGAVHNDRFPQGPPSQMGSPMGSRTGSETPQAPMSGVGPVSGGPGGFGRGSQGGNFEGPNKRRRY
Description: subcellular fractionation and western blotting, SK-hep1 cells (FIG. 1e). (In western blotting, separated proteins are transferred to a membrane and probed.)

Experiment [3] addresses T2, β-catenin (human, UniProt P35222 2-781).
T2 construct: Endogenous protein co-immunoprecipitated from cell lysates or nuclear fractions; also called nuclear β-catenin
T2 sequence (looked up): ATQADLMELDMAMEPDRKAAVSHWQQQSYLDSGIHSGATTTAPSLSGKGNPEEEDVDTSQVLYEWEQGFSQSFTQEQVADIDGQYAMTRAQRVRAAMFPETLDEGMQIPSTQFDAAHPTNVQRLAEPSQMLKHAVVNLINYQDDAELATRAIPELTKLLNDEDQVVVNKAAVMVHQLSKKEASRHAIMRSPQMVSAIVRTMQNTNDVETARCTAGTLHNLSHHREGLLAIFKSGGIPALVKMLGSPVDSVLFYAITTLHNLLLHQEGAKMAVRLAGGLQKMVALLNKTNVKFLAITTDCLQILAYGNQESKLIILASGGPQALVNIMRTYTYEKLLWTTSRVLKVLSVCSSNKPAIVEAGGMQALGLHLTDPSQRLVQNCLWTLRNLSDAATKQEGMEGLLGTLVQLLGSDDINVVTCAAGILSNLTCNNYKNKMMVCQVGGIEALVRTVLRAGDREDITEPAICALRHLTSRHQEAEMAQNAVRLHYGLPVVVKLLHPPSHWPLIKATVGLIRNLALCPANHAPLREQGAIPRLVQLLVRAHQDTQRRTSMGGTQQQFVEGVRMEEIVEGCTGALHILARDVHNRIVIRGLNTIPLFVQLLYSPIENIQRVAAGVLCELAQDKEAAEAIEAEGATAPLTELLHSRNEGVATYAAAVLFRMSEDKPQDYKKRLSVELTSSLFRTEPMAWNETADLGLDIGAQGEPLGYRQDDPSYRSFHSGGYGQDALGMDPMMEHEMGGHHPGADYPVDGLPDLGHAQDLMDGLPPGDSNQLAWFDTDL
The experiment can be described thus: IP/western blotting, Huh-7 cells with HGF stimulation (FIG. 3b). On the procedure: (§1) (a-b) Huh-7 treated with or without HGF (10 ng/ml) for EMT induction. Under HGF stimulation, nuclear PSPC1 interacted with β-catenin and loss of PTK6 interaction owing to an increase of cytosolic PTK6 accumulation in HGF-induced EMT model in IP/westem blotting analysis. Arrowhead is the IgG heavy chain. Arrows are indicated proteins after IB. (c) Nuclear (SP1 as marker) and cytosolic (α-tubulin as marker) localization of PSPC1/PTK6 interaction and β-catenin analyzed by western blotting analysis in SK-hep1 cells. PSPC1-Y523F mutant further enhanced nuclear localization of β-catenin. (d) Nuclear (SP1 as marker) localization of PSPC1/PTK6 interaction and βcatenin analyzed by IP/western blotting analysis in SK-hep1 cells. Y523F PSPC1 mutant further enhanced nuclear interaction with β-catenin but not PTK6. […] Promoter activation (fold) was calculated relative to vector alone (Mock) in cells. […] (h) Secreted cytokines Wnt1 and Wnt3a protein expression measured by ELISA assays of conditional medium after transfection of divergent PSPC1/PTK6 expression constructs in SK-hep1 cells.

Experiment [4] has as its target T2, β-catenin. The experiment can be described thus: IP/western blotting of nuclear fraction, SK-hep1 cells (FIG. 3d). On the procedure: as §1

B1: EGFP-conjugated PSPC1-CT131 (PSPC1 C-terminal 131 fragment) (other)
chain: MGDMGPRGAINMGDAFSPAPAGNQGPPPMMGMNMNNRATIPGPPMGPGPAMGPEGAANMGTPMMPDNGAVHNDRFPQGPPSQMGSPMGSRTGSETPQAPMSGVGPVSGGPGGFGRGSQGGNFEGPNKRRRY
notes: PSPC1-CT131 cloned into pEGFP-C2 and expressed in Mahlavu cells; also called PSPC1-CT131-EGFP; EGFP-PSPC1-CT; not shown: EGFP from the pEGFP-C2 plasmid
Take B1: the binding result in experiment [1] is listed as “binds”.

B2: Flag-tagged PTK6 kinase-dead mutant (PTK6-K219M) (enzyme)
chain: not shown
notes: also called PTK6-KM; KM mutant; not shown: Flag tag
As for B2, in experiment [2], the binding result was “no binding”.
Turning to B3, in experiment [3], the binding result is given as “binds”.

B4: PSPC1-Y523F mutant (HA-tagged) (other)
chain: MMLRGNLKQVRIEKNPARLRALESAVGESEPAAAAAMALALAGEPAPPAPAPPEDHPDEEMGFTIDIKSFLKPGEKTYTQRCRLFVGNLPTDITEEDFKRLFERYGEPSEVFINRDRGFGFIRLESRTLAEIAKAELDGTILKSRPLRIRFATHGAALTVKNLSPVVSNELLEQAFSQFGPVEKAVVVVDDRGRATGKGFVEFAAKPPARKALERCGDGAFLLTTTPRPVIVEPMEQFDDEDGLPEKLMQKTQQYHKEREQPPRFAQPGTFEFEYASRWKALDEMEKQQREQVDRNIREAKEKLEAEMEAARHEHQLMLMRQDLMRRQEELRRLEELRNQELQKRKQIQLRHEEEHRRREEEMIRHREQEELRRQQEGFKPNYMENREQEMRMGDMGPRGAINMGDAFSPAPAGNQGPPPMMGMNMNNRATIPGPPMGPGPAMGPEGAANMGTPMMPDNGAVHNDRFPQGPPSQMGSPMGSRTGSETPQAPMSGVGPVSGGPGGFGRGSQGGNFEGPNKRRRF
notes: All PSPC1 mutants were generated in a pCDNA3.0-HA plasmid; also called Y523F PSPC1 mutant; HA-tagged Y523F mutant; not shown: HA tag from the pCDNA3.0-HA plasmid
In the case of B4, the binding result in experiment [4] is given as “binds”.
